Results on one substance are retold here after patent US6403561.

The subject of this data set is non-sulphated CCK-8 (Asp-Tyr-Met-Gly-Trp-Met-Asp-Phe-NH2).

Chain of membrane-bound tripeptidylpeptidase II purified from rat brain (cerebral cortex) membranes (chain, as listed by the source): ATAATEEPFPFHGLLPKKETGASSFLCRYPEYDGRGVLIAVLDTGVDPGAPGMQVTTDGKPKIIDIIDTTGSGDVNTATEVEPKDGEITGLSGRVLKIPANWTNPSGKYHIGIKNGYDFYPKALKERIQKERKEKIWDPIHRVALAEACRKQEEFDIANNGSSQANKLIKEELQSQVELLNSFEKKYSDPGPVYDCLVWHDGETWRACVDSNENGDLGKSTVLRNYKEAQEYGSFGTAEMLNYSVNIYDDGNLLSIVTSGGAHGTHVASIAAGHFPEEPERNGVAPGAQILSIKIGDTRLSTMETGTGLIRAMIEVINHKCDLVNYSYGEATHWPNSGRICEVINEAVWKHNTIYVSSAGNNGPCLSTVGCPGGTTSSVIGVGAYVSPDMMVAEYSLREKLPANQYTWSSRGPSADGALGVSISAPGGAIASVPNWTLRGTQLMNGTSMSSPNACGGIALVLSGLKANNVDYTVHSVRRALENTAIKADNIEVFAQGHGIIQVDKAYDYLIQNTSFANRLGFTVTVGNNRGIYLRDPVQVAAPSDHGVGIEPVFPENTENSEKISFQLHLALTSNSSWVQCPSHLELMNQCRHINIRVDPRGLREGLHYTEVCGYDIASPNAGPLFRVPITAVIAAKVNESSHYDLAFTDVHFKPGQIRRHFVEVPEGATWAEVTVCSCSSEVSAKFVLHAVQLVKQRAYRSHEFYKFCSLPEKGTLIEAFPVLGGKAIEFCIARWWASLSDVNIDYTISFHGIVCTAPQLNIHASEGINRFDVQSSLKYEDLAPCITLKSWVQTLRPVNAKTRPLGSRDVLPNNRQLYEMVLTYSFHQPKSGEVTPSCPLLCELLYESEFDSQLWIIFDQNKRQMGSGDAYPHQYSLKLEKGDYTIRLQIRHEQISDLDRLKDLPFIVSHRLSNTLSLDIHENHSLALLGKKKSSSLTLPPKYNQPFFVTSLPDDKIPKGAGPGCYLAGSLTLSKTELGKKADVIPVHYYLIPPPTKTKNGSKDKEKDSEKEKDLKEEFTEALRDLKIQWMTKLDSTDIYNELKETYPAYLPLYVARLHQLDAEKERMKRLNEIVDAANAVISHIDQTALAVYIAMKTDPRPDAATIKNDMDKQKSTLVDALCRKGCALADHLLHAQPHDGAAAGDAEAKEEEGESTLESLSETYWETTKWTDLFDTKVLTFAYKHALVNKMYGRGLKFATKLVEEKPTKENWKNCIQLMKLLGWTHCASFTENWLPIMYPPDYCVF

For “membrane-bound tripeptidylpeptidase II purified from rat brain (cerebral cortex) membranes”, the “hydrolysis of CCK-8 (products CCK-5 and Gly-Trp-Met measured fluorimetrically after HPLC)” value was “only one enzyme is responsible for the two cleavages of the molecule CCK-8”.
